Test results reported in publication PMC6769586.

Assays:
[1] = molecular target: T1, CYP2C8-K399R (human) (UniProt P10632)
T1 sequence: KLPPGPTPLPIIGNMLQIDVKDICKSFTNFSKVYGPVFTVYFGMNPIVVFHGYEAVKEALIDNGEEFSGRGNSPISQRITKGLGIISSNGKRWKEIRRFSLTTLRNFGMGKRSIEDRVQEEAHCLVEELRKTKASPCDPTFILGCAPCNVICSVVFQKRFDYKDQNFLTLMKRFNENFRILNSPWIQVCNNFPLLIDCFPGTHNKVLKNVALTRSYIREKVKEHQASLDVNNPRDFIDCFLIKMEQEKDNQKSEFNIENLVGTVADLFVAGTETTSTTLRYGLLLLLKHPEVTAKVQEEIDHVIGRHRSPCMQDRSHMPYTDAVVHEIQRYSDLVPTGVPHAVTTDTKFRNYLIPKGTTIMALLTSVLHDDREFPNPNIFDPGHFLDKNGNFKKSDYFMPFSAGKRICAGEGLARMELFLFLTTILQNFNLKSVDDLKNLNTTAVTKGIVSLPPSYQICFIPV

[2] = molecular target: T2, CYP2C8-R139K (human) (UniProt P10632)
T2 sequence: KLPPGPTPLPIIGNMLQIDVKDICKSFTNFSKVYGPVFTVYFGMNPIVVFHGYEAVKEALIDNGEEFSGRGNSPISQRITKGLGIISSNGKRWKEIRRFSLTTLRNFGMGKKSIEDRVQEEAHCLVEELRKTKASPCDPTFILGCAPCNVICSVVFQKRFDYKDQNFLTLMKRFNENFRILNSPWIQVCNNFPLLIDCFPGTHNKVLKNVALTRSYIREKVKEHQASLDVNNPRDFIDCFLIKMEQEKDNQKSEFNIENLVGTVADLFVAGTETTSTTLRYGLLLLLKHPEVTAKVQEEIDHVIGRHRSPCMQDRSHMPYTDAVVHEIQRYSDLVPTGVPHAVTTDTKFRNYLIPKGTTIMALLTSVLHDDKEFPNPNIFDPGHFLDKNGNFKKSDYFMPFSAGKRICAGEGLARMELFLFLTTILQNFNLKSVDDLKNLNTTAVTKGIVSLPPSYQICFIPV

[3] = molecular target: T3, Cytochrome P450 2C8 (CYP2C8*1, wildtype) (human) (UniProt P10632)
T3 sequence: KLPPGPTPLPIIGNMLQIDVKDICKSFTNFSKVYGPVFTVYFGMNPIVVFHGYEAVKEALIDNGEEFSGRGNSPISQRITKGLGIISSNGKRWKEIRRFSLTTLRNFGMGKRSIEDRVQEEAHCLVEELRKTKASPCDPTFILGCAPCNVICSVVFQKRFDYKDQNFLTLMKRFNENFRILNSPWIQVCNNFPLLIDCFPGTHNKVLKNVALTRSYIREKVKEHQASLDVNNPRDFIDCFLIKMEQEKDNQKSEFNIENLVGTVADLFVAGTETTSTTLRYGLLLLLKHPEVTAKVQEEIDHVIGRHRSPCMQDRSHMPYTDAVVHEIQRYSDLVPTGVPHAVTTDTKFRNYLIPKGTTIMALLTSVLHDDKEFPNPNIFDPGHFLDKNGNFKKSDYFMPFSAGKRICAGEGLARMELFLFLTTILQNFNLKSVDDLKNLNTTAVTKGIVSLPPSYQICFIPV

[4] = molecular target: T4, Cytochrome P450 2C8 R139K/K399R (CYP2C8*3) (human) (UniProt P10632)
T4 sequence: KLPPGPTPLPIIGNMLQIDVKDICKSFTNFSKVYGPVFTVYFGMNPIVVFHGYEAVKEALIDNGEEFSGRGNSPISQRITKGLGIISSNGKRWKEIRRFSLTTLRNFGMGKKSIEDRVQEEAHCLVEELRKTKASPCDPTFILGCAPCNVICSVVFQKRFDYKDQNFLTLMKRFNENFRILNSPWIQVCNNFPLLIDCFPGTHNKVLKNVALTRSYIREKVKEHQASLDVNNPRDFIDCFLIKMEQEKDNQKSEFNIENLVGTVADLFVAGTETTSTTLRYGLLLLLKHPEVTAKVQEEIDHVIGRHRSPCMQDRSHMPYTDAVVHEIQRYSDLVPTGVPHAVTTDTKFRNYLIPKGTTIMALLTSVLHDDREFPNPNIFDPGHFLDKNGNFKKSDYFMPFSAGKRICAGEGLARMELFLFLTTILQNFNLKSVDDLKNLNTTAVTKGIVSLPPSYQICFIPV

stopped-flow CO binding (first electron transfer from CPR), fast phase k1, 1:1 CPR:CYP, 70 uM paclitaxel, 37 °C [1]: 0.445 s⁻¹
stopped-flow CO binding (first electron transfer from CPR), slow phase k2, 1:1 CPR:CYP, 70 uM paclitaxel, 37 °C [1]: 19.4 ms^-1
stopped-flow CO binding (first electron transfer from CPR), fast phase k1, 1:1 CPR:CYP, 70 uM paclitaxel, 37 °C [2]: 0.406 s⁻¹
stopped-flow CO binding (first electron transfer from CPR), monophasic k2, 3:1 CPR:CYP, 70 uM paclitaxel, 37 °C [2]: 6.02 ms^-1
stopped-flow CO binding (first electron transfer from CPR), fast phase k1, 1:1 CPR:CYP, 70 uM paclitaxel, 37 °C [3]: 0.468 s⁻¹
stopped-flow CO binding (first electron transfer from CPR), monophasic k2, 3:1 CPR:CYP, 70 uM paclitaxel, 37 °C [4]: 13.7 ms^-1
B1: Cytochrome P450 reductase (enzyme)
chain: MGDSHEDTSATMPEAVAEEVSLFSTTDMVLFSLIVGVLTYWFIFRKKKEEIPEFSKIQTTAPPVKESSFVEKMKKTGRNIIVFYGSQTGTAEEFANRLSKDAHRYGMRGMSADPEEYDLADLSSLPEIDKSLVVFCMATYGEGDPTDNAQDFYDWLQETDVDLTGVKFAVFGLGNKTYEHFNAMGKYVDQRLEQLGAQRIFELGLGDDDGNLEEDFITWREQFWPAVCEFFGVEATGEESSIRQYELVVHEDMDVAKVYTGEMGRLKSYENQKPPFDAKNPFLAAVTANRKLNQGTERHLMHLELDISDSKIRYESGDHVAVYPANDSALVNQIGEILGADLDVIMSLNNLDEESNKKHPFPCPTTYRTALTYYLDITNPPRTNVLYELAQYASEPSEQEHLHKMASSSGEGKELYLSWVVEARRHILAILQDYPSLRPPIDHLCELLPRLQARYYSIASSSKVHPNSVHICAVAVEYEAKSGRVNKGVATSWLRAKEPAGENGGRALVPMFVRKSQFRLPFKSTTPVIMVGPGTGIAPFMGFIQERAWLREQGKEVGETLLYYGCRRSDEDYLYREELARFHKDGALTQLNVAFSREQAHKVYVQHLLKRDREHLWKLIHEGGAHIYVCGDARNMAKDVQNTFYDIVAEFGPMEHTQAVDYVKKLMTKGRYSLDVWS
